The record followed here is patent US20220041736A1 (Amgen, published 2022).

Test [1] concerns the target T1, 1-27 CD3-Fc (N-terminal amino acids 1-27 of the mature human CD3 epsilon chain fused to the hinge and Fc … (human)).
T1 construct: Entry 229 is printed without the leader peptide; also called 27 aa huCD3ε; 1-27 CD3ε-Fc
Briefly: ELISA, captured 1-27 CD3-Fc, crude periplasmic scFv. For orientation: An ELISA detects its analyte on a solid surface through an enzyme-linked reagent.

The target in the next test is T2, swine 1-27 CD3ε-EpCAM (Sus scrofa CD3 epsilon 1-27 / …).
T2 construct: Negative control construct on 293-HEK or CHO cells; also called 1-27 CD3-EpCAM comprising the swine 27 mer
T2 chain: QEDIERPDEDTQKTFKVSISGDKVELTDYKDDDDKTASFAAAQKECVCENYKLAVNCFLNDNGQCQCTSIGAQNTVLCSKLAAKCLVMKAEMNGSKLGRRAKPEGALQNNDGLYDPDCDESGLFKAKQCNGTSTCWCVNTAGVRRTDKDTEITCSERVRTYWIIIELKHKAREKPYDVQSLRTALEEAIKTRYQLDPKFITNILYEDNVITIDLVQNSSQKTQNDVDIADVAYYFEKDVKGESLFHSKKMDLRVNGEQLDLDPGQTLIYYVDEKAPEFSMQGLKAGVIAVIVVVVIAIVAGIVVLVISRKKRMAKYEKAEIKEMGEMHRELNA
Put plainly: FACS, transfected 293-HEK cells, crude periplasmic scFv. A general note: Flow cytometry measures light scatter and fluorescence of single cells or particles in a stream.

For test [2], the target named is T3, human 1-27 CD3ε-EpCAM (1-27 N-terminal amino acids of human CD3 epsilon, Flag tag, cynomolgus EpCAM) (human CD3 epsilon 1-27 / cynomolgus …).
T3 construct: also called 1-27 CD3-EpCAM comprising the human 27 mer
T3 chain: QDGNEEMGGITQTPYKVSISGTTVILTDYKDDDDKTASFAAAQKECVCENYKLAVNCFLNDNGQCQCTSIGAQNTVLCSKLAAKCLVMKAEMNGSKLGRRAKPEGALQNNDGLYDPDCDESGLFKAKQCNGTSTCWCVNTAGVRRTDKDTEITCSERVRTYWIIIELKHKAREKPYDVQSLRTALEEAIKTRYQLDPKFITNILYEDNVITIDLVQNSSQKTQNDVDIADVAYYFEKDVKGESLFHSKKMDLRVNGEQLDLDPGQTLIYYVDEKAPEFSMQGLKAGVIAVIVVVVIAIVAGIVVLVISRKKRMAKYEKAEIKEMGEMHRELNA
Briefly: FACS, transfected 293-HEK cells.

Another test concerns the target T4, marmoset 1-27 CD3ε-EpCAM (Callithrix jacchus CD3 epsilon 1-27 / …).
T4 construct: Transmembrane fusion on 293-HEK or CHO cells; also called 1-27 CD3-EpCAM comprising the marmoset 27 mer
T4 chain: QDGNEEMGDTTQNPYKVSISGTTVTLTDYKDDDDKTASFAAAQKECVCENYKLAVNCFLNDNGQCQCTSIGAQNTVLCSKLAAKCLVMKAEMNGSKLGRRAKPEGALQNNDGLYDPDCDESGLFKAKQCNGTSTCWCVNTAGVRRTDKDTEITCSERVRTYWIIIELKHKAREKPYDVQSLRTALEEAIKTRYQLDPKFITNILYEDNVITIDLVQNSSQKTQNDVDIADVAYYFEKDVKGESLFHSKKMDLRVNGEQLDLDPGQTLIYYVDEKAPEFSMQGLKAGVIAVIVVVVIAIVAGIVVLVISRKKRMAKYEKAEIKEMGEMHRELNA
Briefly: FACS, transfected 293-HEK cells.

Test [3] addresses T5, squirrel monkey 1-27 CD3ε-EpCAM (Saimiri sciureus CD3 epsilon 1-27 / …).
T5 construct: Transmembrane fusion on 293-HEK or CHO cells; also called 1-27 CD3-EpCAM comprising the squirrel monkey 27 mer
T5 chain: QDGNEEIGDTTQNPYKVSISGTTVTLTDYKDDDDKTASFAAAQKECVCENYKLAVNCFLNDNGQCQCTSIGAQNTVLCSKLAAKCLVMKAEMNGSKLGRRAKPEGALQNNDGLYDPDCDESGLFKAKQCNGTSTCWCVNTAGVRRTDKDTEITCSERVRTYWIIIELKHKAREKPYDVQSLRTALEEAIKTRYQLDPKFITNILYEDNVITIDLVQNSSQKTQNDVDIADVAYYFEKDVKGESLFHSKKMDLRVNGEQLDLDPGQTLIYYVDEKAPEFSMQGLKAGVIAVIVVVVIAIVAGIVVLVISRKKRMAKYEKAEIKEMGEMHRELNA
Briefly: FACS, transfected 293-HEK cells.

The next test concerns the target T6, tamarin 1-27 CD3ε-EpCAM (Saguinus oedipus CD3 epsilon 1-27 / …).
T6 construct: Transmembrane fusion on 293-HEK or CHO cells; also called 1-27 CD3-EpCAM comprising the tamarin 27 mer
T6 chain: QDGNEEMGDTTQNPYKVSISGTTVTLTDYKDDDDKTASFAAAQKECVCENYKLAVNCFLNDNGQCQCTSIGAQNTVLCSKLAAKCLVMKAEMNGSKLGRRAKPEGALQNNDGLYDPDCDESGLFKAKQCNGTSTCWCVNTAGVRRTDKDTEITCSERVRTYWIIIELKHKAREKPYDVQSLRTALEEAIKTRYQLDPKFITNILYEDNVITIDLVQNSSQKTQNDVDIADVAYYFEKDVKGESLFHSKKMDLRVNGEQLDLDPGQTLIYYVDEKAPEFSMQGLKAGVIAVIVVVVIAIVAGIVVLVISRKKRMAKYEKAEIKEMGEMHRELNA
Briefly: FACS, transfected 293-HEK cells.

The target of test [4] is T7, BSA (bovine serum albumin, blocking agent) (bovine, UniProt P02769 25-607).
T7 construct: also called bovine Albumin, fraction V
Put plainly: ELISA, blocked wells without antigen, crude periplasmic preparation.

Test [5] deals with T1, 1-27 CD3-Fc (N-terminal amino acids …). Put plainly: ELISA, immobilized antigen, crude periplasmic preparation.
The target of test [6] is T8, human 1-27 CD3 BSA conjugate (peptide of the N-terminal amino acids 1-27 of human CD3 epsilon plus C-terminal … (human, printed as acetyl-QDGNEEMGGITQTPYKVSISGTTVILTC; C-terminal Cys 28 coupled to maleimide activated BSA).
T8 construct: also called peptide-BSA conjugate
T8 peptide: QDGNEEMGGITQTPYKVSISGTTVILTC
The test is described as above.

T7 sequence (P02769 25-607 limits assumed): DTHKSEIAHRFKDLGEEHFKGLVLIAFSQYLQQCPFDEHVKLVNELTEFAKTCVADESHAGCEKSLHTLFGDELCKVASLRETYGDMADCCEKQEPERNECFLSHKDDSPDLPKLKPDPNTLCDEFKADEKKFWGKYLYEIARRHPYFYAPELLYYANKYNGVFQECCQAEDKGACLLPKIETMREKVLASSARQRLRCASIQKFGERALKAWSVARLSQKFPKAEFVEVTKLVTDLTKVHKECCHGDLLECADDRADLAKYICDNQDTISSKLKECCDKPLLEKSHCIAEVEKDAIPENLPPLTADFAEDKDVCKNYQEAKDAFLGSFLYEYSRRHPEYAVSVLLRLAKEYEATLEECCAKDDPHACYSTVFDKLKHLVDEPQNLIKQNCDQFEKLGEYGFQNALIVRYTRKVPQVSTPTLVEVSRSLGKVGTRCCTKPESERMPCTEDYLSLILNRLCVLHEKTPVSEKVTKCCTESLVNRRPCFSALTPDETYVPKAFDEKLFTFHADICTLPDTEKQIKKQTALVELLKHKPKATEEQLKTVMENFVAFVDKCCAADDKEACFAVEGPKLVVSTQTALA

B1: A2J HLP single-chain antibody (scFv)
scFv: EVQLLESGGGLVQPGGSLKLSCAASGFTFNVYAMNWVRQAPGKGLEWVARIRSKYNNYATYYADSVKKRFTISRDDSKNTAYLQMNNLKTEDTAVYYCVRHGNFGNSYLSWWAYWGQGTLVTVSSGGGGSGGGGSGGGGSELVVTQEPSLTVSPGGTVTLTCRSSTGAVTSGYYPNWVQQKPGQAPRGLIGATDMRPSGTPARFSGSLLGGKAALTLSGVQPEDEAEYYCALWYSNRWVFGGGTKLTVLTGDYKDDDDKHHHHHH
notes: Crude periplasmic preparation from pComb3H5BFlag/His; also called VH-VL-P of A2J
On to B1, for which the binding result in [1] is reported as “binds”.

B2: E2M HLP single-chain antibody (scFv)
scFv: EVQLLESGGGLVQPGGSLKLSCAASGFTFNGYAMNWVRQAPGKGLEWVARIRSKYNNYATYYADSVKERFTISRDDSKNTAYLQMNNLKTEDTAVYYCVRHRNFGNSYLSWFAYWGQGTLVTVSSGGGGSGGGGSGGGGSELVVTQEPSLTVSPGGTVTLTCRSSTGAVTSGYYPNWVQQKPGQAPRGLIGATDMRPSGTPARFSGSLLGGKAALTLSGVQPEDEAEYYCALWYSNRWVFGGGTKLTVLTGDYKDDDDKHHHHHH
notes: Crude periplasmic preparation; also called VH-VL-P of E2M
With B2, the binding result is on record as “binds” in test [1]; “no binding” with swine 1-27 CD3ε-EpCAM; “binds” in test [2]; “binds” with marmoset 1-27 CD3ε-EpCAM; “binds” in test [3]; “binds” in the test with tamarin 1-27 CD3ε-EpCAM.

B3: anti-CD3 single domain antibody CD3 3D-H11 (VHH)
VHH: EVQLVESGGGLVQPGGSLRLSCAASGFTFDDYGMSWVRQAPGKWLEWVSDISWNGGSTYYADSVKGRFTISRDNAENTLYLQMNSLKPDDTAVYYCAKMGEGGWGANDYWGQGTQVTVSS
notes: Crude periplasmic preparation from pComb3H5BFlag/His; also called V CD3 3D-H11
On to B3, for which the binding result in test [4] was “no binding”; in test [5], “binds”; in test [6] it was “binds”.
